Key:
[1] = molecular target: T1, Helicoverpa armigera V-ATPase subunit c (Helicoverpa armigera); assay: ELISA, plate coated with the target antigen
T1 construct: also called V-ATPases Subunit C; ATPase V subunit c
T1 chain: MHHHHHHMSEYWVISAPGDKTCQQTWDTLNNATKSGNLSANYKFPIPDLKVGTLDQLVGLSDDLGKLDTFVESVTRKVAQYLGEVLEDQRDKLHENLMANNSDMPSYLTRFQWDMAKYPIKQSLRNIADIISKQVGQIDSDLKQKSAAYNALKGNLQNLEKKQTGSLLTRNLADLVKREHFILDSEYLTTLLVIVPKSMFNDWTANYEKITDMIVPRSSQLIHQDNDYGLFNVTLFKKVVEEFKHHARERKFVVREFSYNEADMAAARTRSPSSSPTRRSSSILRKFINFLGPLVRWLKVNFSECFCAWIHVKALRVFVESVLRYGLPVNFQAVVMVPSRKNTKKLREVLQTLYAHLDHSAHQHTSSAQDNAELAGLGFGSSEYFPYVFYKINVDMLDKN

[2] = molecular target: T2, Helicoverpa armigera trehalase (Helicoverpa armigera); assay: ELISA, plate coated with 10 ug/ml target protein, 2 ug/ml nanobody, anti-VHH-HRP, A450
T2 construct: the tag is not part of the printed entry; also called TRH; target TRH antigen
T2 chain: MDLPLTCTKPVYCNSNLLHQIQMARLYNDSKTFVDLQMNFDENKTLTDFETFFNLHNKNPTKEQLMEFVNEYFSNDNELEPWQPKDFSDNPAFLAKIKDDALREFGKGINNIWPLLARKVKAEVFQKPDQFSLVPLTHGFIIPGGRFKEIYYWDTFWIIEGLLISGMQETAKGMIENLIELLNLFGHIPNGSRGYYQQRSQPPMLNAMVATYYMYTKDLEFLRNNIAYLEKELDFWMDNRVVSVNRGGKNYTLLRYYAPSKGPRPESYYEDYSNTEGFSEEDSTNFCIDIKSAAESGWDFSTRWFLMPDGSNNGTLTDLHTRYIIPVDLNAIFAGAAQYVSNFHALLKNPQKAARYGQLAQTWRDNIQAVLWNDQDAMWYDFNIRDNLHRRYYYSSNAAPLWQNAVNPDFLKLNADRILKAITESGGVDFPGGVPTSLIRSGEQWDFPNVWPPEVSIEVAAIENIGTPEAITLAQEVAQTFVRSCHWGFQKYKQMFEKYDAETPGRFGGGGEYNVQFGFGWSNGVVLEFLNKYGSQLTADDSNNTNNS

[3] = molecular target: T3, Helicoverpa armigera cytochrome p450 monooxygenase (Helicoverpa armigera, UniProt Q95031 23-504); assay: as above
T3 construct: the tag is not part of the printed entry; also called target P450 antigen
T3 chain: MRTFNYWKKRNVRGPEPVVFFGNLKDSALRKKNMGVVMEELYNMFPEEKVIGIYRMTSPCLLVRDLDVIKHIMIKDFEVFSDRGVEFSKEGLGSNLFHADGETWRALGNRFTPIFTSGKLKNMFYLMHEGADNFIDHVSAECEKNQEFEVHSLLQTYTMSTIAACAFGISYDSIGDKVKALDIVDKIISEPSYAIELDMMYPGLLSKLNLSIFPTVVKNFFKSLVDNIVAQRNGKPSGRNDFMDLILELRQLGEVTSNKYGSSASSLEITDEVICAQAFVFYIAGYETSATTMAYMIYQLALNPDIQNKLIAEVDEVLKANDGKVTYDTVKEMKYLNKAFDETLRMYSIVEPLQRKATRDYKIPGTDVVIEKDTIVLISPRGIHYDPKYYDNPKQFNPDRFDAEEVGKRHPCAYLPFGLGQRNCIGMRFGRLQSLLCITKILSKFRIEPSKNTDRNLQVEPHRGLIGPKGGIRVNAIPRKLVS

[4] = molecular target: T4, Helicoverpa armigera chitin deacetylase (Helicoverpa armigera); assay: as above
T4 construct: the tag is not part of the printed entry; also called CDA; target CDA antigen
T4 chain: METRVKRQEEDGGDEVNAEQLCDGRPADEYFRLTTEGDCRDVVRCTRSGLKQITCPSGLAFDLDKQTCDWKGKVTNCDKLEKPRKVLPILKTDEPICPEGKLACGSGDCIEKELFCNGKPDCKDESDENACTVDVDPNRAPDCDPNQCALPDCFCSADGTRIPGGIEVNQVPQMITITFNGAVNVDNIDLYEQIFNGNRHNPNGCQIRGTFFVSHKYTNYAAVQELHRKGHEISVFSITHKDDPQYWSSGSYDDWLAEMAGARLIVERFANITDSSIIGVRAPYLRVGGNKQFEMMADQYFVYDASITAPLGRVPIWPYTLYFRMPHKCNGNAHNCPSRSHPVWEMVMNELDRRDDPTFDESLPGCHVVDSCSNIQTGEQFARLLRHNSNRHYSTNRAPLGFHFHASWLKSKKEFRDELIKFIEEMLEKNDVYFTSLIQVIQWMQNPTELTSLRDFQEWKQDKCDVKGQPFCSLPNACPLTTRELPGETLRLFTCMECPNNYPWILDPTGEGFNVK

[5] = molecular target: T5, Helicoverpa armigera NPC1 sterol transporter (Helicoverpa armigera); assay: as above
T5 construct: the tag is not part of the printed entry; also called target NPC antigen; target NPC1 antigen
T5 chain: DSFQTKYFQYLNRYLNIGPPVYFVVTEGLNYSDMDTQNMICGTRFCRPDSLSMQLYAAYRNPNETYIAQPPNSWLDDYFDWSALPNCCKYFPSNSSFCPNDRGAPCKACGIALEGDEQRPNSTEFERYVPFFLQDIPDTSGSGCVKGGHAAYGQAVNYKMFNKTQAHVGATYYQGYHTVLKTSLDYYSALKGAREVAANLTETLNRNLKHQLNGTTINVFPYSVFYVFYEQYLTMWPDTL

B1: VAT0101A (VHH)
VHH: QVQLQESGGGLVQAGGSLRLSCAASGSTFSGYIMSWFRQPPGKERELVAAITYVGSTYVEDSVKGRFTISRDNAKNTVSLQMNSLKPEDTAVYYCRAREGEQLDFWGQGTQVTVSS
notes: Llama nanobody, His-tagged, expressed in E. coli SHuffle T7; also called anti-VAT nanobody VAT0101A
binding result [1]: binds

B2: TRH1A (VHH)
VHH: QVQLQESGGGLVQAGGSLRLSCATSGRAFTNYHMGWFRQTPGKEREFVALISWSGDSTRYADSVKGRFTISRDNAKRTVALQMDSLKPEDSAVYYCASRLVGQSQYEVWGQGTQVTVSS
notes: Llama nanobody, His-tagged, expressed in E. coli SHuffle T7; also called anti-TRH nanobody TRH1A
binding result [2]: binds

B3: P45003A (VHH)
VHH: QVQLQESGGGLVQAGDSLRLSCVASKRSFSSHAMGWFRQAPGKAREFVATISWNSGSTFYSDSSRGRFTISRDNGKNTLYLQMNSLKPEDTAVYYCAAASGRGITASDFRYDAWGQGTQVTVSS
notes: Llama nanobody, His-tagged, expressed in E. coli SHuffle T7; also called anti-P450 nanobody P45003A
binding result [3]: binds

B4: P45004 (VHH)
VHH: QVQLQESGGGLVQAGGSLRLSCAASGRTFSRINMGWFRQAPGKEREFVAVISWNSIADYADSVKARFTISRDNAKNTVYLQMNSLKPEDTAVYYCAASAPFRSKNPTLYLYWGRGTQVTVSS
notes: Llama nanobody, His-tagged, expressed in E. coli SHuffle T7; also called anti-P450 nanobody P45004
binding result [3]: binds

B5: CDA05 (VHH)
VHH: QVQLQESGGGLVQPGGSLRLSCTASGRTVSNYGMAWFRQVAGKERAFVAAINNRGDSKYYAESVKGRFTIARDNAKNTVYLQMNVLKPEDTAVYYCAADRRSLVRYEYNYWGQGTQVTVSS
notes: Llama nanobody, His-tagged, expressed in E. coli SHuffle T7; also called CDA5; anti-CDA nanobody CDA05
binding result [4]: binds

B6: TRH12 (VHH)
VHH: QVQLQESGGGLVQAGGSLRLSCAASTSTVSDYHMGWFRQGPGKEREFVAAISWSGDSTDYADSVKARFTISRDNAKKTMSLQMNSLKPEDTAAYYCAARRVFKATWDYWGQGTQVTVSS
notes: Llama nanobody, His-tagged, expressed in E. coli SHuffle T7; also called anti-TRH nanobody TRH12
binding result [2]: binds

B7: CDA01A (VHH)
VHH: QVQLQESGGGLVQAGGSLRLSCAASGRTFNTYAMGWFRQAPGKEREFVAAMNRDGSTVLYADSVKGRFAISKDNAKNTGYLQMNSLKPEDTAIYYCAANARYSDYTDGQSFVSWGQGTQVTVSS
notes: Llama nanobody, His-tagged, expressed in E. coli SHuffle T7; also called CDA1a; anti-CDA nanobody CDA01A
binding result [4]: binds

B8: TRH14 (VHH)
VHH: QVQLQESGGGLVQAGDSLRLSCAASGRPFSSYTMGWFRQAPGKEREFVAAISWSGGTTYYTDSVQGRFTISRDNAKNTVYLQMNRLKPEDTAVYYCATDVGRIYGGGSLYSSAFSYDYWGQGTQVTVSS
notes: Llama nanobody, His-tagged, expressed in E. coli SHuffle T7; also called anti-TRH nanobody TRH14
binding result [2]: binds

B9: NPC0901 (VHH)
VHH: QVQLQESGGGLVQAGDSLRISCKASGRTFSNYPIGWFRQAPGKEREFVAAISRSGGGTRYADSVKGRFTISRDNAKNTVYLQMNSLKRDDTAVYYCAAYFGNLGGGVGRSSDYDYWGQGTQVTVSS
notes: Llama nanobody, His-tagged, expressed in E. coli SHuffle T7; also called NPC9; anti-NPC nanobody NPC0901
binding result [5]: binds

B10: NPC07A01 (VHH)
VHH: QVQLQESGGGLVQAGDSLRISCKASGRTFSSYPIGWFRQAPGKEREFVAAISRSGGRTYYADSVKGRLTISRDNAKNTVYLQMNSLKLEDTAVYYCAAKTTMGLPVGGTYEYDYWGQGTQVTVSS
notes: Llama nanobody, His-tagged, expressed in E. coli SHuffle T7; also called NPC7a; anti-NPC nanobody NPC07A01
binding result [5]: binds

B11: CDA10 (VHH)
VHH: QVQLQESGGGLVQTGESLRLSCAASGRTLSSYTMGWFRQAPGKEREIVAASSWSGGRTYYADSVKGRFTMSRNNAENTVYLQMNSLNPEDTAVYYCAADSSRAPRTYNYWGQGTQVTVSS
notes: Llama nanobody, His-tagged, expressed in E. coli SHuffle T7; also called anti-CDA nanobody CDA10
binding result [4]: binds

B12: CDA07A (VHH)
VHH: QVQLQESGGGLVQAGGSLRLSCVASGRTFGNYGLAWFRQPPGKEREFVAAINNRGGNTYYADSVKGRFTISRDNAANTLYLQMSSLKPEDTAVYYCAADRTSLHSYRYTYWGQGTQVTVSS
notes: Llama nanobody, His-tagged, expressed in E. coli SHuffle T7; also called CDA7a; CDA7A
binding result [4]: binds

B13: P45001A (VHH)
VHH: QVQLQESGGGLVQTGGSLRLSCAASGRTSRSYAMGWFRQAPGKERELVADIAWSDGRIYYSDSVKGRFTISRDNAKNTVYLEIDSLKPGDTAVYYCASRARGTVLYNYWGQGTQVTVSS
notes: Llama nanobody, His-tagged, expressed in E. coli SHuffle T7; also called anti-P450 nanobody P45001A
binding result [3]: binds

B14: TRH13 (VHH)
VHH: QVQLQESGGGLVQAGGSLRLTCAATVRIFSSYTMGWFRQSPGKEREFVGAITWSGGNTYYADSVKGRFTISRDNAKNTVYLQMNSLKSEDTAVYYCAADPGRSYVLSRYYDQASYDYWGQGTQVTVSS
notes: Llama nanobody, His-tagged, expressed in E. coli SHuffle T7; also called anti-TRH nanobody TRH13
binding result [2]: binds

Reference: patent publication US20220386594A1 (IBI AG INNOVATIVE BIO INSECTICIDES, published 2022)
